# Target: T1, Kv2.1 surface clusters (Rattus norvegicus, UniProt P15387)
# T1 construct: expressed in transfected cells; host or cells: primary rat cortical neurons (E16-17 Sprague-Dawley), Lipofectamine 2000
# T1 sequence (P15387 1-857): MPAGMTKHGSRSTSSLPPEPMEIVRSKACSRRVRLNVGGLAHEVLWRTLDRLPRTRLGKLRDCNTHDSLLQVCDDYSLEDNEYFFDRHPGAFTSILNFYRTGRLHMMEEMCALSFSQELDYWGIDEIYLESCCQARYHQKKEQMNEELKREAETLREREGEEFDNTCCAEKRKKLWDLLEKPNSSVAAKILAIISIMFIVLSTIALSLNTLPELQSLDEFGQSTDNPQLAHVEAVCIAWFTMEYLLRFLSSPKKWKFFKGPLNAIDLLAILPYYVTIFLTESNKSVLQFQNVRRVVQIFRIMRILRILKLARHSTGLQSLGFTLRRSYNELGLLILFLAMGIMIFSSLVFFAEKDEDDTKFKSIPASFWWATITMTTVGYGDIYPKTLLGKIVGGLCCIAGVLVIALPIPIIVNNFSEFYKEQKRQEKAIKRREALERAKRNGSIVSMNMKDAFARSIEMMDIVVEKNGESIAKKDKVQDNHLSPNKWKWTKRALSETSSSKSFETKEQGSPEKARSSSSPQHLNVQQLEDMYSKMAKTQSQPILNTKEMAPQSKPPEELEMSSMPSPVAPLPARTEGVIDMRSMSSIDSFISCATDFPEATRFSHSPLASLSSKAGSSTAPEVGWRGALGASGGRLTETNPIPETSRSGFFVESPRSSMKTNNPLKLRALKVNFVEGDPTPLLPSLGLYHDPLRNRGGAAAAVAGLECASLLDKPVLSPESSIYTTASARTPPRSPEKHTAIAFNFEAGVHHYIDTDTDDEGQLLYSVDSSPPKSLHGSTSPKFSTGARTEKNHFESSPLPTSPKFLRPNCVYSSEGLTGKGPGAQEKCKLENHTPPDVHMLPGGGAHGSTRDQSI
# Assay: Kv2.1 surface cluster density in live Kv2.1-GFP-transfected cortical neurons treated with TAT-linked peptides
# Format: cell-based
# Conditions: 10 μM, two-hour treatment, mean±SEM (FIG. 12B)
# Protocol: In vitro experiments utilized primary cortical neuronal cultures prepared from embryonic day 16-17 Sprague-Dawley rats of either sex in a protocol described previously (McCord et al., J Physiol (Lond). 592: 3511-3521, 2014). Timed-pregnant rats (Charles River Laboratories, Wilmington, Mass.) were sacrificed by CO2 inhalation. Embryonic cortices were dissociated with trypsin (0.6 mg/mL) and cells plated in sterile 6-well plates on poly-L-ornithine-coated glass coverslips at a density of 670,000 cells per well. Cytosine arabinoside (1-2 μM) was utilized to inhibit non-neuronal proliferation on day 14 in vitro (DIV); cultures were utilized at 21-25 DIV.
# ; Invitrogen, Carlsbad, Calif.). […]
# To analyze Kv2.1 distribution in live primary cortical neurons, cells were transfected with both a tdTomato construct and a GFP-tagged Kv2.1 construct (O'Connell, et al., J Neurosci. 26: 9609-9618, 2006) and imaged on a Nikon A1+ confocal microscope (Nikon, Tokyo, Japan). […] For live images of transfected neurons, object count parameters were customized to define a Kv2.1 cluster as an area of high intensity GFP fluorescence (compared to background), measuring 0.05 μm^2 or larger (Schulien et al., J Physiol (Lond). 594: 2647-2659, 2016). Kv2.1 cluster density was calculated by normalizing the number of Kv2.1 clusters counted to the somatic area of each neuron (#Kv2.1 clusters/μm^2). […]
row,Sequence,mean Kv2.1 surface cluster density
1,"YGRKKRRQRRRDIDDFTD [TAT-DP-2D, TAT-linked peptide containing serine to aspartate mutations]",0.08±0.02 #Kv2.1 clusters/μm^2 of neuronal soma
2,"YGRKKRRQRRRAIDAFTA [TAT-DP-2A, TAT-linked serine to alanine mutant of DP-2]",0.14±0.02 #Kv2.1 clusters/μm^2 of neuronal soma

# — US11673916B2, “Neuroprotective peptides and methods of their use” (University of Pittsburgh—Of the Commonwealth System of …, priority 2020, dated 2023)
